These results are taken from patent publication US20230357425A1 (HARBOUR BIOMED SHANGHAI, published 2023).

The chains are these.
B1: PR000506 (antibody, human IgG1, kappa, L234A L235A, V domains shown)
VH: QVQLVESGGGVAQPGRSLSLSCAASGFTFSDYGMHWVRQAPGKGLEWVALIWYDGSFEYYADSVKGRFSISRDNSKNTLYLQMNSLRAEDTAVYYCVRDGQWGSRLDYWGQGTLVTVSS
VL: KIVMTQSPATLSLSPGERATLSCRASQSVSRYLAWYQQKPGQAPRLLIYDASNRATGIPARFSGSGSGTDFTLTISSLEPEDFAVYYCQQRSNWIFTFGPGTKVDIKR
notes: Recombinant antibody from hybridoma clone 38H6; also called 38H6E5 (clone name)
B2: PR000844 (antibody, human IgG1, kappa, L234A L235A, V domains shown)
VH: QVQLVESGGGVAQPGRSLSLSCAASGFTFSDYGMHWVRQAPGKGLEWVALIWYEGSFEYYADSVKGRFSISRDNSKNTLYLQMNSLRAEDTAVYYCVRDAQWGSRLDYWGQGTLVTVSS
VL: KIVMTQSPATLSLSPGERATLSCRASQSVSRYLAWYQQKPGQAPRLLIYDASNRATGIPARFSGSGSGTDFTLTISSLEPEDFAVYYCQQRSNWIFTFGPGTKVDIKR
notes: PTM-removal variant of PR000506 (heavy chain D54E, G100A)
B3: PR000849 (antibody, human IgG1, kappa, L234A L235A, V domains shown)
VH: QVQLVESGGGVAQPGRSLSLSCAASGFTFSDYGMHWVRQAPGKGLEWVALIWYDASFEYYADSVKGRFSISRDNSKNTLYLQMNSLRAEDTAVYYCVREGQWGSRLDYWGQGTLVTVSS
VL: EIVLTQSPATLSLSPGERATLSCRASQSVSRYLAWYQQKPGQAPRLLIYDASNRATGIPARFSGSGSGTDFTLTISSLEPEDFAVYYCQQRSNWIFTFGPGTKVDIKR
notes: PTM-removal variant of PR000851 (heavy chain G55A, D99E)
B4: Tab1 (antibody, human IgG1, lambda, V domains shown)
VH: EVQLLESGGGLVQPGGSLRLSCAASGFTFSSYAYSWVRQAPGKGLEWVSAISGSGGRTYYADSVKGRFTISRDNSKNTLYLQMNSLRAEDTAVYYCARLGYGRVDEWGRGTLVTVSS
VL: QSVLTQPPSASGTPGQRVTISCSGSLSNIGRNPVNWYQQLPGTAPKLLIYLDNLRLSGVPDRFSGSKSGTSASLAISGLQSEDEADYYCATWDDSHPGWTFGGGTKLTVLG
notes: also called PR002078; MEDI9447(TAB1)

The assay addresses T1, Cynomolgus monkey CD73 on HEK293-cynoCD73 stable cell line (cynomolgus monkey).
T1 construct: whole, on cells
The experiment in a line: flow cytometry on HEK293-cynoCD73 stable cells. How it is done: Binding of antibodies to hCD73 and cynoCD73 expression in stable cell line was characterized by Flow cytometry. The cells were incubated with various concentration antibodies (the top concentration was 50 nM, 8 points, dilution factor 3), then incubate for 1 h at 4° C. Wash two times by PBS, then add the secondary antibody Goat anti-human(H+L) (Thermo fisher, A11013), incubate for 30 min at 4° C. And the fluorescence intensity was read by FACS Machine (BD FACS CantoII). A plot of median fluorescence intensity and the binding EC50 were fitted and calculated by GraphPad Prism 5.
One may read the EC50 as the concentration that produces a half-maximal response. In the case of B1, the EC50 worked out at 0.323 nM.
Molecule B2 had an EC50 of 0.475 nM.
As for B3, the figure is 0.515 nM; as for B4, 0.623 nM.
